# Results taken from PMC9352680, “A comprehensive thermodynamic model for RNA binding by the Saccharomyces cerevisiae Pumilio protein PUF4”.
# T1: PUF4 RNA-binding domain (Saccharomyces cerevisiae, UniProt P25339 537-888)
# T1 sequence: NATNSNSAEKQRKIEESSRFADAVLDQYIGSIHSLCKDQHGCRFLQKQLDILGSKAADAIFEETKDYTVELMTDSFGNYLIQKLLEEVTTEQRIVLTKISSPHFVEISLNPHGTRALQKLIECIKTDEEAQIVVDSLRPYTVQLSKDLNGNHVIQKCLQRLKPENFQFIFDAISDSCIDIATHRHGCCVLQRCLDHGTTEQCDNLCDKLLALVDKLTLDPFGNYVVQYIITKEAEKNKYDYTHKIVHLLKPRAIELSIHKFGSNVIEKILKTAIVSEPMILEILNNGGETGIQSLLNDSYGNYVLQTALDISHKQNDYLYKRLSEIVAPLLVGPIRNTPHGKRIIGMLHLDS
# Biological target: T1, PUF4 RNA-binding domain
# Assay: Mg; RNA-MaP; 20 mM Na-HEPES pH 7.4, 30 mM KOAc, 0.75 mM MgCl2, 0.1% Tween-20, 5% glycerol, 0.1 mg/mL BSA, 2 mM DTT; 25 C; 0.0125-409.6 nM protein
# Details: tags: N-His6-TEV cleaved; C-SNAP kept, Cy3B-labelled; label: tethered on chip by stalled RNA polymerase
row,Binder,Kd [nM]
1,UCUCUUUCUGUAUAUAUAUCUCUU (ssRNA) [Id_ii_S1_P3E.2_K3.1_C3.2_[C-2T]_[T-1C]_H3.1_A3.1_F3.1_T3.2],3.33
2,UCUCUUUAUGUAUAUAUAUCUCUU (ssRNA) [Id_ii_S1_P3E.2_K3.1_C3.2_[C-2T]_[T-1A]_H3.1_A3.1_F3.1_T3.2],8.02
3,UCUCUUAGUGUAUAUAUAUCUCUU (ssRNA) [Id_i_S1_P3E.2_K3.1_C3.2_[C-2A]_[T-1G]_H3.1_A3.1_F3.1_T3.2],14.6
4,UCUCUUUGUAAAUUAUCUCUU (ssRNA) [Ia_S1_P4E.1_K4.1_C4.1_H4.1_A4.1_[T5A]_F4.1_T4.1],2.08
5,UCUCUUUGUAUAAUCUCUCUU (ssRNA) [Ic_S1_P4E.1_K4.1_C4.1_H4.1_A4.1_[T7A]_F4.1_[A9C]_T4.1],15.8
6,UCUCUUACUGUAUAUAUAUCUCUU (ssRNA) [Id_i_S1_P3E.2_K3.1_C3.2_[C-2A]_[T-1C]_H3.1_A3.1_F3.1_T3.2],9.07
7,UCUCUUAAUGUAUAUAUAUCUCUU (ssRNA) [Id_i_S1_P3E.2_K3.1_C3.2_[C-2A]_[T-1A]_H3.1_A3.1_F3.1_T3.2],7.22
8,UCUCUUGCUAUAUAUAUAUCUCUU (ssRNA) [Id_i_S1_P3E.3_K3.2_C3.2_[C-2G]_[T-1C]_H3.2_A3.1_F3.1_T3.2],569
9,UCUCUUUGUAUAUAUAUAUCUCUU (ssRNA) [Id_ii_S1_P3E.3_K3.2_C3.2_[C-2T]_[T-1G]_H3.2_A3.1_F3.1_T3.2],6.55
10,UCUCUUUCUAUAUAUAUAUCUCUU (ssRNA) [Id_ii_S1_P3E.3_K3.2_C3.2_[C-2T]_[T-1C]_H3.2_A3.1_F3.1_T3.2],368
11,UCUCUUUAUAUAUAUAUAUCUCUU (ssRNA) [Id_i_S1_P3E.3_K3.2_C3.2_[C-2T]_[T-1A]_H3.2_A3.1_F3.1_T3.2],439
12,UCUCUUAGUAUAUAUAUAUCUCUU (ssRNA) [Id_i_S1_P3E.3_K3.2_C3.2_[C-2A]_[T-1G]_H3.2_A3.1_F3.1_T3.2],576
13,UCUCUUACUAUAUAUAUAUCUCUU (ssRNA) [Id_i_S1_P3E.3_K3.2_C3.2_[C-2A]_[T-1C]_H3.2_A3.1_F3.1_T3.2],458
14,UCUCUUAAUAUAUAUAUAUCUCUU (ssRNA) [Id_i_S1_P3E.3_K3.2_C3.2_[C-2A]_[T-1A]_H3.2_A3.1_F3.1_T3.2],675
15,UCUCUUGCACACUAUAUAUCUCUU (ssRNA) [Id_i_S1_P3E.4_K3.3_C3.2_[C-2G]_[T-1C]_H3.3_A3.1_F3.1_T3.2],116
16,UCUCUUUGUAUAGUUUCUCUU (ssRNA) [Ic_S1_P4E.1_K4.1_C4.1_H4.1_A4.1_[T7G]_F4.1_[A9T]_T4.1],9.53

row,Binder,Kd [nM]
1,UCUCUUUGACACUAUAUAUCUCUU (ssRNA) [Id_i_S1_P3E.4_K3.3_C3.2_[C-2T]_[T-1G]_H3.3_A3.1_F3.1_T3.2],2180
2,UCUCUUUCACACUAUAUAUCUCUU (ssRNA) [Id_i_S1_P3E.4_K3.3_C3.2_[C-2T]_[T-1C]_H3.3_A3.1_F3.1_T3.2],> 2300
3,UCUCUUUAACACUAUAUAUCUCUU (ssRNA) [Id_ii_S1_P3E.4_K3.3_C3.2_[C-2T]_[T-1A]_H3.3_A3.1_F3.1_T3.2],2160
4,UCUCUUAGACACUAUAUAUCUCUU (ssRNA) [Id_ii_S1_P3E.4_K3.3_C3.2_[C-2A]_[T-1G]_H3.3_A3.1_F3.1_T3.2],> 2300
5,UCUCUUACACACUAUAUAUCUCUU (ssRNA) [Id_i_S1_P3E.4_K3.3_C3.2_[C-2A]_[T-1C]_H3.3_A3.1_F3.1_T3.2],998
6,UCUCUUAAACACUAUAUAUCUCUU (ssRNA) [Id_i_S1_P3E.4_K3.3_C3.2_[C-2A]_[T-1A]_H3.3_A3.1_F3.1_T3.2],> 2300
7,UCUCUUGGCUGUAUAUAUAUCUCUU (ssRNA) [Id_i_S1_P3E.5_K3.1_C3.3_[T-3G]_[C-2G]_[T-1C]_H3.1_A3.1_F3.1_T3.2],6.92
8,UCUCUUGUCUGUAUAUAUAUCUCUU (ssRNA) [Id_i_S1_P3E.5_K3.1_C3.3_[T-3G]_[C-2T]_[T-1C]_H3.1_A3.1_F3.1_T3.2],4.63
9,UCUCUUCGCUGUAUAUAUAUCUCUU (ssRNA) [Id_i_S1_P3E.5_K3.1_C3.3_[T-3C]_[C-2G]_[T-1C]_H3.1_A3.1_F3.1_T3.2],8.53
10,UCUCUUCUCUGUAUAUAUAUCUCUU (ssRNA) [Id_i_S1_P3E.5_K3.1_C3.3_[T-3C]_[C-2T]_[T-1C]_H3.1_A3.1_F3.1_T3.2],4.39
11,UCUCUUUGUAUACUUUCUCUU (ssRNA) [Ic_S1_P4E.1_K4.1_C4.1_H4.1_A4.1_[T7C]_F4.1_[A9T]_T4.1],5.99
12,UCUCUUCUAUGUAUAUAUAUCUCUU (ssRNA) [Id_i_S1_P3E.5_K3.1_C3.3_[T-3C]_[C-2T]_[T-1A]_H3.1_A3.1_F3.1_T3.2],10.2
13,UCUCUUCACUGUAUAUAUAUCUCUU (ssRNA) [Id_i_S1_P3E.5_K3.1_C3.3_[T-3C]_[C-2A]_[T-1C]_H3.1_A3.1_F3.1_T3.2],5.56
14,UCUCUUCAAUGUAUAUAUAUCUCUU (ssRNA) [Id_i_S1_P3E.5_K3.1_C3.3_[T-3C]_[C-2A]_[T-1A]_H3.1_A3.1_F3.1_T3.2],7.95
15,UCUCUUAGCUGUAUAUAUAUCUCUU (ssRNA) [Id_i_S1_P3E.5_K3.1_C3.3_[T-3A]_[C-2G]_[T-1C]_H3.1_A3.1_F3.1_T3.2],7.66
